According to publication PMC8495968, “Towards optimizing peptide-based inhibitors of protein–protein interactions: predictive saturation variation scanning (PreSaVS)” (RSC Chemical Biology, 2021):

Assays:
[1] = target: MCL-1 (Homo sapiens), Q07820; assay: fluorescence anisotropy competition; conditions: modification not given
[2] = target: MCL-1 (Homo sapiens), Q07820; assay: ITC; conditions: modification not given

Sequence of MCL-1 (Homo sapiens), Q07820 (Q07820 whole entry): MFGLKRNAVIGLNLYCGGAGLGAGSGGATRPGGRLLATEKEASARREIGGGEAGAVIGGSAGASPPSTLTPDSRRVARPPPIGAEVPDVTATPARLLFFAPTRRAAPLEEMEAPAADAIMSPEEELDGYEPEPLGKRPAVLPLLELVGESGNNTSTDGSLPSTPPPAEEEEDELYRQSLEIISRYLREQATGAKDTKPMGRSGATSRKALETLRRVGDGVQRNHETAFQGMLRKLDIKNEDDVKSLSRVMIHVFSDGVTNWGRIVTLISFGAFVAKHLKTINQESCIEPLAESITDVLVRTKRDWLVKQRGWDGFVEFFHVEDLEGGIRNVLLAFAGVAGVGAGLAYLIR

CAQYRRIGDKVNLRQKLLN [NOXA75–93 L78Y 75-93, Q9JM54] was tested, and the IC50 [1] was > 100000 nM.

Binder CAQWRRIGDKVNLRQKLLN [NOXA75–93 L78W 75-93, Q9JM54] has a Kd [2] of 2400 nM and an IC50 [1] of 2200 nM.

With CAQLRRIGDKFNLRQKLLN [NOXA75–93 V85F 75-93, Q9JM54] the Kd [2] was 800 nM and the IC50 [1] was > 20000 nM.

Binder CAQFRRIGDKVNLRQKLLN [NOXA75–93 L78F 75-93, Q9JM54] has a Kd [2] of 1700 nM and an IC50 [1] of 2700 nM.
